Biological target: T1, GST-RNF2 (human, UniProt Q99496 1-336)
T1 construct: RNF2; also called recombinant GST-tagged human RNF2; source: Escherichia coli BL-21, immobilized on glutathione-Sepharose beads
T1 sequence (looked up): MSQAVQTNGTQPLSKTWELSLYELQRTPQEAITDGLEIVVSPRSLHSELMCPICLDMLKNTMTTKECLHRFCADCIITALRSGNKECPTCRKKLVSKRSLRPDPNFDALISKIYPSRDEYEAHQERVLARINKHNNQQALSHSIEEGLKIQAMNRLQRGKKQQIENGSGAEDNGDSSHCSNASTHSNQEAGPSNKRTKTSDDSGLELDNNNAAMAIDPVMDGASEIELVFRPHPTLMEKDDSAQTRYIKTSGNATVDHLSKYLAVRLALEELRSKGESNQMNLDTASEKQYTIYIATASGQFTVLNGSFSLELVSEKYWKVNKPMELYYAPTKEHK
Assay: pull-down; GST-RNF2 immobilized on glutathione-Sepharose beads incubated with recombinant His-MANF; blot with anti-MANF
Settings: both partners purified

binding result: binds
B1: His-tagged human MANF (natural protein, UniProt P55145 25-182, looked up)
chain: LRPGDCEVCISYLGRFYQDLKDRDVTFSPATIENELIKFCREARGKENRLCYYIGATDDAATKIINEVSKPLAHHIPVEKICEKLKKKDSQICELKYDKQIDLSTVDLKKLRVKELKKILDDWGETCKGCAEKSDYIRKINELMPKYAPKAASARTDL
notes: human MANF; also called His-MANF; recombinant His-MANF; source: Escherichia coli BL-21, purified (Ni-NTA agarose)

Source: paper PMC11607471, “E3 Ubiquitin Ligase Ring Finger Protein 2 Alleviates Cerebral Ischemia–Reperfusion Injury by Stabilizing Mesencephalic Astrocyte‐Derived Neurotrophic Factor Through Monoubiquitination” (CNS Neuroscience & Therapeutics, 2024)
